Where a chain is given by its changes, count along the chain named. Names and notes keep the numbering of the source.
B1: NaA527C, single-site cysteine variant of NaAtm1 (natural protein, Novosphingobium aromaticivorans)
chain: MPPETATNPKDARHDGWQTLKRFLPYLWPADNAVLRRRVVGAILMVLLGKATTLALPFAYKKAVDAMTLGGGAQPALTVALAFVLAYALGRFSGVLFDNLRNIVFERVGQDATRHLAENVFARLHKLSLRFHLARRTGEVTKVIERGTKSIDTMLYFLLFNIAPTVIELTAVIVIFWLNFGLGLVTATILAVIAYVWTTRTITEWRTHLREKMNRLDGQALARAVDSLLNYETVKYFGAESREEARYASAARAYADAAVKSENSLGLLNIAQALIVNLLMAGAMAWTVYGWSQGKLTVGDLVFVNTYLTQLFRPLDMLGMVYRTIRQGLIDMAEMFRLIDTHIEVADVPNAPALVVNRPSVTFDNVVFGYDRDREILHGLSFEVAAGSRVAIVGPSGAGKSTIARLLFRFYDPWEGRILIDGQDIAHVTQTSLRAALGIVPQDSVLFNDTIGYNIAYGRDGASRAEVDAAAKGAAIADFIARLPQGYDTEVGERGLKLSGGEKQRVAIARTLVKNPPILLFDEATSCLDTRTEQDILSTMRAVASHRTTISIAHRLSTIADSDTILVLDQGRLAEQGSHLDLLRRDGLYAEMWARQAAESAEVSEAAE
modifications: C527 in a disulfide with C527 of the second chain after oxidation
notes: NaAtm1 of Novosphingobium aromaticivorans, GenBank ABD27067, with A527C; Made by site-directed mutagenesis of the C-terminally His6-tagged NaAtm1 construct; also called crosslinked NaA527C; source: Escherichia coli BL21-gold (DE3), purified (NiNTA, oxidation with Cu(II)-(1,10-phenanthroline)3, SEC)
B2: NaS526C, single-site cysteine variant of NaAtm1 (natural protein, Novosphingobium aromaticivorans)
chain: B1 chain with S526C, C527A
modifications: C526 in a disulfide with C526 of the second chain after oxidation
notes: NaAtm1 of Novosphingobium aromaticivorans, GenBank ABD27067, with S526C; Made by site-directed mutagenesis of the C-terminally His6-tagged NaAtm1 construct; source: Escherichia coli BL21-gold (DE3), purified (NiNTA, oxidation with Cu(II)-(1,10-phenanthroline)3, SEC)
B3: NaT525C, single-site cysteine variant of NaAtm1 (natural protein, Novosphingobium aromaticivorans)
chain: B1 chain with T525C, C527A
notes: NaAtm1 of Novosphingobium aromaticivorans, GenBank ABD27067, with T525C; In the cross-linking test C525 forms a disulfide with C525 of the second chain; source: Escherichia coli BL21-gold (DE3), purified (NiNTA, oxidation with Cu(II)-(1,10-phenanthroline)3, SEC)
B4: NaE523Q, ATP-hydrolysis deficient variant of NaAtm1 with the E to Q mutation in the Walker B-motif (natural protein, Novosphingobium aromaticivorans)
chain: B1 chain with E523Q, C527A
notes: NaAtm1 of Novosphingobium aromaticivorans, GenBank ABD27067, with E523Q; Made by site-directed mutagenesis of the C-terminally His6-tagged NaAtm1 construct; source: Escherichia coli BL21-gold (DE3), purified (NiNTA, SEC)
B5: wildtype NaAtm1, bacterial Atm1 homolog from Novosphingobium aromaticivorans (natural protein)
chain: B1 chain with C527A
notes: NaAtm1, ABC exporter (Atm1 homolog) of Novosphingobium aromaticivorans, GenBank ABD27067; natively cysteine-less; homodimer of 133 kDa; Selenomethionine protein (E. coli B834 (DE3)) was used for phasing; also called native transporter; source: Escherichia coli BL21-gold (DE3), purified (NiNTA, SEC) in DDM

Legend:
[1] = target: the molecule itself; assay: cross-linking; disulfide cross-linking of purified cysteine variants in detergent: 1 mM Cu(II)-(1,10-phenanthroline)3, 1 hour, 4 °C, 100 mM NaCl, 20 mM Tris pH 7.5, 0.05% DDM, 0.05% C12E8
[2] = target: the molecule itself; assay: crystal structure; NaS526C, NaT525C and NaE523Q with bound ATP; condition of NaA527C without MgCl2; samples with 1 mM ATP and 5 mM EDTA
[3] = target: the molecule itself; assay: crystal structure; wildtype NaAtm1 purified in DDM with MgAMPPNP; 50 mM ADA pH 7.1, 8-10% PEG 1000, 8-10% PEG 1500, 20 °C

| Protein | binding result [1] | further results |
| --- | --- | --- |
| B1 | binds |  |
| B2 | binds |  |
| B3 | binds |  |
| B4 |  | binding result [2]: binds |
| B5 |  | binding result [3]: binds |

Source: paper doi:10.1101/836676, “Crosslinking of nucleotide binding domains improves the coupling efficiency of an ABC transporter” (bioRxiv, 2019)
